Experimental data as given in patent publication US20230414619.

Biological target: Flag-tagged METTL3, Q86U44
Sequence (Q86U44 whole entry): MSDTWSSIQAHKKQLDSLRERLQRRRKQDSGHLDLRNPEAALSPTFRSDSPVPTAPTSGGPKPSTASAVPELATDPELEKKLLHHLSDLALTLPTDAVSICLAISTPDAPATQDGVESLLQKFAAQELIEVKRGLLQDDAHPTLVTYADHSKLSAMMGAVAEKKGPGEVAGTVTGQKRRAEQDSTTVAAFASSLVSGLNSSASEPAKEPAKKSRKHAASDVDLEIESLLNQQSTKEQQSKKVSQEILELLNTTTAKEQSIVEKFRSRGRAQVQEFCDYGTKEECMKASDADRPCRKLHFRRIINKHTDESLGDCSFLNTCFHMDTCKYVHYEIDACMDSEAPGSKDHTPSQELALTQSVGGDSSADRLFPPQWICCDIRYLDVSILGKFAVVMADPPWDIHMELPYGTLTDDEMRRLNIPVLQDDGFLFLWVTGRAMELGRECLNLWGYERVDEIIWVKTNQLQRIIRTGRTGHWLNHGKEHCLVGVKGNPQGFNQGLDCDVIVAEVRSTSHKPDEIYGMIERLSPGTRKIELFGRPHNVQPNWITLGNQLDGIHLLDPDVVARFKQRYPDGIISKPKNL

B1: HA-tagged G9a (protein)
chain: MAAAAGAAAAAAAEGEAPAEMGALLLEKETRGATERVHGSLGDTPRSEETLPKATPDSLEPAGPSSPASVTVTVGDEGADTPVGATPLIGDESENLEGDGDLRGGRILLGHATKSFPSSPSKGGSCPSRAKMSMTGAGKSPPSVQSLAMRLLSMPGAQGAAAAGSEPPPATTSPEGQPKVHRARKTMSKPGNGQPPVPEKRPPEIQHFRMSDDVHSLGKVTSDLAKRRKLNSGGGLSEELGSARRSGEVTLTKGDPGSLEEWETVVGDDFSLYYDSYSVDERVDSDSKSEVEALTEQLSEEEEEEEEEEEEEEEEEEEEEEEEDEESGNQSDRSGSSGRRKAKKKWRKDSPWVKPSRKRRKREPPRAKEPRGVNGVGSSGPSEYMEVPLGSLELPSEGTLSPNHAGVSNDTSSLETERGFEELPLCSCRMEAPKIDRISERAGHKCMATESVDGELSGCNAAILKRETMRPSSRVALMVLCETHRARMVKHHCCPGCGYFCTAGTFLECHPDFRVAHRFHKACVSQLNGMVFCPHCGEDASEAQEVTIPRGDGVTPPAGTAAPAPPPLSQDVPGRADTSQPSARMRGHGEPRRPPCDPLADTIDSSGPSLTLPNGGCLSAVGLPLGPGREALEKALVIQESERRKKLRFHPRQLYLSVKQGELQKVILMLLDNLDPNFQSDQQSKRTPLHAAAQKGSVEICHVLLQAGANINAVDKQQRTPLMEAVVNNHLEVARYMVQRGGCVYSKEEDGSTCLHHAAKIGNLEMVSLLLSTGQVDVNAQDSGGWTPIIWAAEHKHIEVIRMLLTRGADVTLTDNEENICLHWASFTGSAAIAEVLLNARCDLHAVNYHGDTPLHIAARESYHDCVLLFLSRGANPELRNKEGDTAWDLTPERSDVWFALQLNRKLRLGVGNRAIRTEKIICRDVARGYENVPIPCVNGVDGEPCPEDYKYISENCETSTMNIDRNITHLQHCTCVDDCSSSNCLCGQLSIRCWYDKDGRLLQEFNKIEPPLIFECNQACSCWRNCKNRVVQSGIKVRLQLYRTAKMGWGVRALQTIPQGTFICEYVGELISDAEADVREDDSYLFDLDNKDGEVYCIDARYYGNISRFINHLCDPNIIPVRVFMLHQDLRFPRIAFFSSRDIRTGEELGFDYGDRFWDIKSKYFTCQCGSEKCKHSAEAIALEQSRLARLDPHPELLPELGSLPPVNT
  LC-MS/MS of tryptic digests of Flag-METTL3: mono- or di-methyl-lysine (Kme) sites: four mono- or di-methyl-lysine (Kme) sites in the C-terminus of METTL3
  lysine methylation of immunoprecipitated Flag-METTL3, immunoblotting with an anti-mono- or di-methylysine antibody: METTL3 was methylated
